Laboratory results as given in publication PMC9600270 (Cancers, 2022).

How the values were obtained:
[1] = tested on: RD cells (cell surface nucleolin); assay: Lactoferrin competition of QD-F3 binding, RD; format: cell-based; conditions: 2 μM lactoferrin pretreatment 20 min, then 20 nM QD-F3 + 2 μM lactoferrin 1 h on ice, FACS
[2] = tested on: Rh30 cells (cell surface nucleolin); assay: Lactoferrin competition of QD-F3 binding, Rh30; format: cell-based; conditions: 2 μM lactoferrin pretreatment 20 min, then 20 nM QD-F3 + 2 μM lactoferrin 1 h on ice, FACS

B1: lactoferrin: human milk lactoferrin, high-affinity natural ligand of nucleolin (protein, UniProt P02788 20-710, looked up)
Lactotransferrin: GRRRSVQWCAVSQPEATKCFQWQRNMRKVRGPPVSCIKRDSPIQCIQAIAENRADAVTLDGGFIYEAGLAPYKLRPVAAEVYGTERQPRTHYYAVAVVKKGGSFQLNELQGLKSCHTGLRRTAGWNVPIGTLRPFLNWTGPPEPIEAAVARFFSASCVPGADKGQFPNLCRLCAGTGENKCAFSSQEPYFSYSGAFKCLRDGAGDVAFIRESTVFEDLSDEAERDEYELLCPDNTRKPVDKFKDCHLARVPSHAVVARSVNGKEDAIWNLLRQAQEKFGKDKSPKFQLFGSPSGQKDLLFKDSAIGFSRVPPRIDSGLYLGSGYFTAIQNLRKSEEEVAARRARVVWCAVGEQELRKCNQWSGLSEGSVTCSSASTTEDCIALVLKGEADAMSLDGGYVYTAGKCGLVPVLAENYKSQQSSDPDPNCVDRPVEGYLAVAVVRRSDTSLTWNSVKGKKSCHTAVDRTAGWNIPMGLLFNQTGSCKFDEYFSQSCAPGSDPRSNLCALCIGDEQGENKCVPNSNERYYGYTGAFRCLAENAGDVAFVKDVTVLQNTDGNNNEAWAKDLKLADFALLCLDGKRKPVTEARSCHLAMAPNHAVVSRMDKVERLKQVLLHQQAKFGRNGSDCPDKFCLFQSETKNLLFNDNTECLARLHGKTTYEKYLGPQYVAGITNLKKCSTSPLLEACEFLRK
With B1 the “QD-F3 binding upon co-incubation with excess lactoferrin” value [1] was “clear decrease” and the “QD-F3 binding upon co-incubation with excess lactoferrin” value [2] was “clear decrease”.
